Measurements published in the DeepSol protein solubility set.

Assay: soluble on expression in E. coli; label from the status in PepcDB or PDB records
In the case of “TPAGSFGLEFSFSYQKFTASFQPNYRRQTYSYSNTYEWHDANNVQNYLQLTYNQKTQLDYIEFPLFIRYDIISGAFKPFVQAGFYYAILNSATKQLNIEGVDHSGGTSRSFTEPVTIIGADDLFINSSIGAALGLGTSYKVGNIRLILDATYRMGLNNISNVQNRYISNSLSGAGDVSDDLKLNNITFSFGCLFPMKFLISPSHKAVD”, the “soluble on expression in E. coli” value is reported as “not soluble”.
With “MGSDKIHHHHHHMLNFYPGPSKLHANIDLHLQQAITSGILSMNHRSMDFMQLYQQVQENFEQFYDLPKDYKVYFTSAATECWTILAQSFPNRSFLHLYNGSFGKKWMEVSKQLEVEHTSVVFDIHGELPVTEINPDTAAEIVCTTLVETSNGTFLSKDIQAAVRETFSDALIAVDATSALAGLSVTWEHADIWFASVQKCFGLPSGLGILILSPTAQHTVEFRSKDIHYNSLKRIVENGASFQTTHTPNILGIYLLAQRLKEIDVTEFFNRNERMNYLYNHFSSHPSLQPLIIEKSVQSATVLTLKGDEEYIKQVKKSLKAQDIIIGSGYGVWKENTIRLANFPAHTDEDFKKLLLVI” the “soluble on expression in E. coli” value was “not soluble”.
With “MYKIVSDSACDLSKEYLEKHDVTIVPLSVSFDGETYYRDGVDITRDECYQRMVDDPKLFPKTSLPSVESYADVFRSFVEQGFPVVCFTITTLFSGSYNSAINAKSLVLEDYPDANICVIDSKQNTVTQALLIDQFVRMLEDGLSFEQAMSKLDALMASARIFFTVGSLDYLKMGGRIGKVATAATGKLGVKPVIIMKDGDIGLGGIGRNRNKLKNSVLQVAKKYLDENNKDNFIVSVGYGYDKEEGFEFMKEVESTLDVKLDSETNVAIGIVSAVHTGPYPIGLGVIRKYETL” the “soluble on expression in E. coli” value was “soluble”.
With “MIVWSVANQKGGVGKTTTTITLAGLLSQQGKRVLLVDTDPHASLTTYLGYDSDGVPASLFDLFQLREYNEASVKPLILNTDIQGIDLIPAHMSLATLDRVMGNRSGMGLILKRALLALRHVYDYVLIDCPPILGVMMVNALAASDRILIPVQTEFLAMKGLERMVRTLAIMQKSRSREFKVTIVPTMYDKRTRASLQTLNQLKKDYPDKVWTSAVPIDTKFRDASLQRLPASHFAEGSRGVFAYKQLLLFLERLAIDE” the “soluble on expression in E. coli” value was “not soluble”.
With “MSLTIYLMRHGQTYFNLWHKIQGWTDSPLTEEVIKQAKEIGRYFRENNINFDKGYSSTSERASDTLELATDHQLPYRRLKGLKEEYFGSFEAEDERLNPPVPYEDFFVKYGGESEDQVKMRMHDTMLKIARENADNSNILIVSHAGAIFNFLSTINMSIDQLFKIGFTNASVAKIEFKNDQFKVVEIINKKNNKFEVTQVNEGHHHHHH” the “soluble on expression in E. coli” value was “soluble”.
With “MATTAQKIKEVEDEMAKTQKNKATAKHLGMLKAKLAKLKRELITPTGGGGGGGLGFDVARTGIGTVGFIGFPSVGKSTLMTQLTGTRSEAAAYEFTTLTTVPGVLQYNGAKIQILDLPGIIEGAKDGRGRGKQVITVARTCNLIFIVLDVLKPMSHKRIIEEELEGFGIRLNKEPPNIVFKKKERGGINITNTVPLTHIDLDEIRAVCSEYRVNSADIAFRCDATIDDLIDVLEGNRVYIPALYVLNKIDSISIEELDLIDRIPNAVPICGNRGWNIDELKETMWDYLNLVRVYTRPRGLEPDYSEPVILRTGHSTVEDFCNNIHSSIKSQFKHAYVWGKSVPYPGMRVGLSHVLLDEDVVTIVKK” the “soluble on expression in E. coli” value was “not soluble”.
With “MTPLRVFRKTTPLVNTIRLSLLPLAGLSFSAFAAQVNIAPGSLDKALNQYAAHSGFTLSVDASLTRGKQSNGLHGDYDVESGLQQLLDGSGLQVKPLGNNSWTLEPAPAPKEDALTVVGDWLGDARENDVFEHAGARDVIRREDFAKTGATTMREVLNRIPGVSAPENNGTGSHDLAMNFGIRGLNPRLASRSTVLMDGIPVPFAPYGQPQLSLAPVSLGNMDAIDVVRGGGAVRYGPQSVGGVVNFVTRAIPQDFGIEAGVEGQLSPTSSQNNPKETHNLMVGGTADNGFGTALLYSGTRGSDWREHSATRIDDLMLKSKYAPDEVHTFNSLLQYYDGEADMPGGLSRADYDADRWQSTRPYDRFWGRRKLASLGYQFQPDSQHKFNIQGFYTQTLRSGYLEQGKRITLSPRNYWVRGIEPRYSQIFMIGPSAHEVGVGYRYLNESTHEMRYYTATSSGQLPSGSSPYDRDTRSGTEAHAWYLDDKIDIGNWTITPGMRFEHIESYQNNAITGTHEEVSYNAPLPALNVLYHLTDSWNLYANTEGSFGTVQYSQIGKAVQSGNVEPEKARTWELGTRYDDGALTAEMGLFLINFNNQYDSNQTNDTVTARGKTRHTGLETQARYDLGTLTPTLDNVSIYASYAYVNAEIREKGDTYGNLVPFSPKHKGTLGVDYKPGNWTFNLNSDFQSSQFADNANTVKESADGSTGRIPGFMLWGARVAYDFGPQMADLNLAFGVKNIFDQDYFIRSYDDNNKGIYAGQPRTLYMQGSLKF” the “soluble on expression in E. coli” value was “soluble”.
In the case of “MSLNMTSKETKEGLAGYFSSDAAKMQSNNVSPVANNPFVQSTDKLDTRDFKITEVERSHYAIAQKLRQMLMADATPQSASGISADDVGVQLRVNSDIMYAPGSAELAPEGAKVLDDVIRILKEYNLYLVVRGHTDSGEPRNSIYPSNWELSGARAAAAVRYIITHGEIKPTRLRSIAYADTRPLEPNTSPDSRAKNRRVEFYFHRPEVMSYSVVYEGHHHHHH”, the “soluble on expression in E. coli” value is reported as “soluble”.
For “MVKKITVYTAFGQFLKMVELQMEQEMEKMNEIETDKLPIDHQLSDYQNNIESGNDRQVQSCPVDVSIPKEVMKCASCPLLCFNCSVQMPVSPVPTTIESRKINETTQLMMEFWKIVASKSEEEKLPSLFENVEGLFSVPFSTFGTWDDDTLSGVTSLNFEKSDEQLSEQDDDKTTVWSSNFPSAHVLTVYENSEQKTDEMADDEMSDTTSSFLSTLSTTMSAQVPALHLLQRVQLQRSVIKKQKKIIDSFSELQNLNKKLADLRKKHRD”, the “soluble on expression in E. coli” value was “not soluble”.
In the case of “LATMKDVARLAGVSTSTVSHVINKDRFVSEAITAKVEAAIKELNYAPSALARSLKLNQTHTIGMLITASTNPFYSELVRGVERSCFERGYSLVLCNTEGDEQRMNRNLETLMQKRVDGLLLLCTETHQPSREIMQRYPTVPTVMMDWAPFDGDSDLIQDNSLLGGDLATQYLIDKGHTRIACITGPLDKTPARLRLEGYRAAMKRAGLNIPDGYEVTGDFEFNGGFDAMRQLLSHPLRPQAVFTGNDAMAVGVYQALYQAELQVPQDIAVIGYDDIELASFMTPPLTTIHQPKDELGELAIDVLIHRITQPTLQQQRLQLTPILMERGSA”, the “soluble on expression in E. coli” value is reported as “soluble”.
For “ADAYFYNPITSQRSNFPLSYPMTAKSFMEKHGLLDREEYLKRLAENENNVELVNYPLEKLEFNRRVNKLNVLMISVNNLRADALNQEEMPNLYEFAQQNQNFRKHYSSSNDTYGAFGLFYGLPTSYASSIKAQGASPVLLDVLKDQGYTFGLFSGSGFEDDLYSEIVFRGVNLAEKLDGTQAHTDKQSIADWNMWLTEKANQPWFSYIEVTTVDNFESIPSNSKEDMSASERFKNAYEFAVKSADDKVGGIIKTLEDAQLLANTVVIVTSNHGSEFNETNTNSWGANSNYSRYQLQVPMVIHWPGMMAGEFNHSTSHLDLSVTLLQDMLGVSSNPYDYSSGRNLFDESRRRWILAGDTRELALITNNQTTVIDKFGNYKLYDENYKRMRDETPKLPVLMQGLTELQRFYSKSE”, the “soluble on expression in E. coli” value was “not soluble”.
With “MGSDKIHHHHHHMVNGNITQLSDMQIPENWGAYLAEKSTQNNAFFTSGVVQNVPQIAALLGAGKVANMPLFKPLADDDPQVPDDTTDLLVNKITTDLAQARKLGFDQAWSATDLSAELSGADPLSAIGDQVSDYWSHVYEKLLLQTLTGVFSSTSMKGVNQLDTTTDKTDTTFSLKNFNKARFLLGDRYKDLAIVAVHSDILRQLQDANLVDAKNNSTFVLNGNSNVPTAIQTPDAGDKIKGVQIVVDDSLPVDNGKYTSYLFAQGAVGYSELPVTNAVETNRDPLKNHGIDYLVNRRRFVFAPQGLSWNESNFVTKNPGKTYPSMTDLADGTNWSKVYDHKLIPMAQFVTSADAIVPSTTADPQTGK” the “soluble on expression in E. coli” value was “not soluble”.
For “MGSDKIHHHHHHMSLSHNRHKKLIEMVQTDGEVRIRDLMVHFNVSEETARRDIKQLEQDGLVVRVHGGAVATQQPKLLTISSRAISELAEKNVIAEIALGLLKPGQNLFFGGGSTVLALARRISMLPEMRIVTNMVDTAIAASEGRRHRVVLLGGDFNGDYRVVTGFAALRTLREQQIDIAFIGVNAVHPTLGVFDHEQGGQELAATLAEQARKITVLADHSKFGRSARYRTLPHSAIATIITDQQPEPHVLTAIEGAGADVLYPPQNPS”, the “soluble on expression in E. coli” value was “not soluble”.
In the case of “MGSDKIHHHHHHTQKPDITYMPQPPFNPPTYVCYKAPAPIKIDGKLSPGEWDAIPWTSDFVDIEGDKRPAPHFQTRAKMTYDDNGMYFAVLMEEPHVWATITEHDAVIFHDNDFEIFLNPTNDTHNYLEYEVNALGTEWDLFLTRPYRDNPQVLNNWEFTGMKSAVYVDGTLNNPKDTDKSWSVEVFIPWTSVFQMDRGKEKPEIGEQIRVNFSRVEWTTDVKDGKYVKVPIQGEDKIREYNWVWAPTGVINIHMPEYWGYVQISDKIAGEGETPFVKHPSEETKWILRNLYYRQNEFAATFGHYADNINDLKANELCPQEIANQLEIHTTPSMYEISLPAPDGTVWNIRQDGLVWPKKK”, the “soluble on expression in E. coli” value is reported as “not soluble”.
With “SEKELRSTILFNAYKKEVFTTNTGYKSLQKRLRSNWKIQSLKDEITSEKLIGVKLWITAGPREKFTAAEFEVLKKYLDSGGDILVMLGEGGESRFDTNINFLLEEYGIMVNNDAVVRNVYYKYFHPKEALGSDGVLNREISRAAGKAVPGVIDEENSGNNAQALTFVYPFGATLSVMKPAVAVLSTGSVCFPLNRPILAFYHSKNQGFGKLAVLGSCHMFSDQYLDKEENSKIMDVVFQWLTTGDIHLNQIDAEDPEISDYTMVPDTATLSEQLRVCLQEGDENPRDFTTLFDLSIYQLDTTCLPKVIKAHEELNVKHEPLQLVQPQFEMPLPALQPAVFPPSFRELPPPPLELFDLDETFSSEKARLAQITNKCTDEDLEFYVMKCGDILGVTSKLPKDQQDAKHILEHIFFQVVEFKKLNQEAH” the “soluble on expression in E. coli” value was “soluble”.
For “MGHHHHHHSHMKFRAKIVDGACLNHFTRISNMIAKLAKTCTLRISPDKLNFILCDKLANGGVSMWCELEQENFFNEFQMEGVSAENNEIYLELTSENLSRALKTAQNARALKIKLTNKHFPCLTVSVELLSMSSSSRIVTHDIPIKVIPRKLWKDLQEPVVPDPDVSIYLPVLKTMKSVVEKMKNISNHLVIEANLDGELNLKIETELVCVTTHFKDLGNPPLASESTHEDRNVEHMAEVHIDIRKLLQFLAGQQVNPTKALCNIVNNKMVHFDLLHEDVSLQYFIPALS”, the “soluble on expression in E. coli” value was “soluble”.
For “MAHHHHHHMAQNPWFVKKSKTLRTSQLEKFINKFNEEYEHLMHMTRFKYIKRTLESIKENSDLIINKKTFSILRISCVAQLQPKYLNKIDDGISVYLSNFMLKANHDVEGFCLCFNKIKLKEKESRVMNNDPSIMFVKISFKLLILVLKENYEIKAKINKIEPLKIHLDIFGIVEAIFSEDMFKDFHYDSRNNRFRREGKFFSLYDIVLFTIKKITYGDNGANVKVIGYF”, the “soluble on expression in E. coli” value was “not soluble”.
With “MCMDLESLLAIKHFRADQAQLALKRQQQAAVAAAAQRQAQGRLDDCRLWAGQLENRLYAELCRRIVKTRDIDEVLQRVGHARDRQASLALQLDDAVRRHEHEIQLLAQQREQHRECFQAQQRIAELVRLQQVEAAALRESLEDREIQEAIELSARGRDDASRAGDGLARLLEHHHHHH” the “soluble on expression in E. coli” value was “not soluble”.
With “SPPNLTPAQSNRVCNSLALLQCVASHSDTRMLFLKAHIPLYLYPFLNTTSKSRPFEYLRLTSLGVIGALVKVDDTEVISFLLSTEIIPLCLRTMEMGSELSKTVATFIVQKILLDDVGMDYICTTAERFFAVGRVLGNMVQSLVEQPSPRLLKHIIRCYLRLSDNPRACAALASCLPDSLRDGSFSNCLREDPTARRWLQQLVHNVGVGRVPTHQGGGFEHML” the “soluble on expression in E. coli” value was “not soluble”.
In the case of “MGQTTEAQSLKYGEREIENGELITFPNPRPGRRYTINITLPEYTCKCPFSGYPDFATIYITYVPDQKVVELKAIKLYINSYRDRYISHEEAVNQILDDLVAACDPLEMTIKGDYQPRGNVHTVIEVTHTKEQA”, the “soluble on expression in E. coli” value is reported as “not soluble”.
